Measurements: patent US20200123260A1

Experiments:
Experiment in all cases: cell-based or functional assay
[1] = target: hTrkB-a isoform fused to a small peptide epitope, in U2OS cells (Discoverx Pathhunter) (human) (UniProt Q16620)
[2] = target: hTrkC in the SHC1 recruitment assay (U2OS, Discoverx Pathhunter) (human) (UniProt Q16288)
[3] = target: hTrkA in the SHC1 recruitment assay (U2OS, Discoverx Pathhunter) (human) (UniProt P04629)
hTrkA in the SHC1 recruitment assay (U2OS, Discoverx Pathhunter) (human), sequence (P04629 33-796): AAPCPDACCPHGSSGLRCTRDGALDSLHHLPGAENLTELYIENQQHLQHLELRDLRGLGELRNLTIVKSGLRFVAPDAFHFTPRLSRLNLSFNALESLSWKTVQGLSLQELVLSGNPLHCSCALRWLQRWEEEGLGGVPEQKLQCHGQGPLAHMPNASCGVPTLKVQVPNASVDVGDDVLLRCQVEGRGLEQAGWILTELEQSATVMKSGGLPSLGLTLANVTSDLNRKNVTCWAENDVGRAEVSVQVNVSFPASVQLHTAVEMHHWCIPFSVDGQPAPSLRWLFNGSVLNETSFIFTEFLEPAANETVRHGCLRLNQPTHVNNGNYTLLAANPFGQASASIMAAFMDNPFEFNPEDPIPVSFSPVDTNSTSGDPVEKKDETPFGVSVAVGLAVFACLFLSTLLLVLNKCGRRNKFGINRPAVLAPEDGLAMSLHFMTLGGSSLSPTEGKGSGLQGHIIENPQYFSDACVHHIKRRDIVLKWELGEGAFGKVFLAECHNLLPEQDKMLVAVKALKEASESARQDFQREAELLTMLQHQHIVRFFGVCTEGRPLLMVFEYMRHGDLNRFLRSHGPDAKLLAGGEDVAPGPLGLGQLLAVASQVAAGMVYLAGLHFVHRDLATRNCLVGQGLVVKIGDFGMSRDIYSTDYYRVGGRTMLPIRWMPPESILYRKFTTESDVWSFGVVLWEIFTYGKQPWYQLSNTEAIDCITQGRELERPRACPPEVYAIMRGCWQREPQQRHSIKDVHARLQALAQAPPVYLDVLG

hTrkB-a isoform fused to a small peptide epitope, in U2OS cells (Discoverx Pathhunter) (human), sequence (Q16620 32-822): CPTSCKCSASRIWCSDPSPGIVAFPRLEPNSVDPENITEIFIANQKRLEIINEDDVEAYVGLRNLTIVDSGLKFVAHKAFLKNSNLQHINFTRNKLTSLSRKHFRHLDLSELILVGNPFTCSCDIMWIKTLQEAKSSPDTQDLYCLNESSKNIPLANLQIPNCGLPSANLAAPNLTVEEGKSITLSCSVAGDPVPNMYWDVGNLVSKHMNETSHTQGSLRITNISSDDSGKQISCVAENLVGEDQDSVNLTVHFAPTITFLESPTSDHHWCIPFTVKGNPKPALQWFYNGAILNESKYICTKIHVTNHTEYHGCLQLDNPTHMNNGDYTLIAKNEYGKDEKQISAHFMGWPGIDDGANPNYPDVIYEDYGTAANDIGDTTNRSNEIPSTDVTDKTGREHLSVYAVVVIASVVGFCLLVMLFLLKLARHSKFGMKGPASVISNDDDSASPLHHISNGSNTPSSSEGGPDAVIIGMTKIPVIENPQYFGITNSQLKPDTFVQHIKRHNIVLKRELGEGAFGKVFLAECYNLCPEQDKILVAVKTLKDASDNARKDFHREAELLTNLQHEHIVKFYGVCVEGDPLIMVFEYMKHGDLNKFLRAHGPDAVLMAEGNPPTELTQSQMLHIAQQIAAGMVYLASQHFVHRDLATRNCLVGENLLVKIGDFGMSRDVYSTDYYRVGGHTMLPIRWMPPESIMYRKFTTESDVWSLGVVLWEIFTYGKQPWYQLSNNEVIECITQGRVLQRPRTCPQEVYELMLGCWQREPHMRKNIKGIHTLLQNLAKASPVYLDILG
hTrkC in the SHC1 recruitment assay (U2OS, Discoverx Pathhunter) (human), sequence (Q16288 32-839): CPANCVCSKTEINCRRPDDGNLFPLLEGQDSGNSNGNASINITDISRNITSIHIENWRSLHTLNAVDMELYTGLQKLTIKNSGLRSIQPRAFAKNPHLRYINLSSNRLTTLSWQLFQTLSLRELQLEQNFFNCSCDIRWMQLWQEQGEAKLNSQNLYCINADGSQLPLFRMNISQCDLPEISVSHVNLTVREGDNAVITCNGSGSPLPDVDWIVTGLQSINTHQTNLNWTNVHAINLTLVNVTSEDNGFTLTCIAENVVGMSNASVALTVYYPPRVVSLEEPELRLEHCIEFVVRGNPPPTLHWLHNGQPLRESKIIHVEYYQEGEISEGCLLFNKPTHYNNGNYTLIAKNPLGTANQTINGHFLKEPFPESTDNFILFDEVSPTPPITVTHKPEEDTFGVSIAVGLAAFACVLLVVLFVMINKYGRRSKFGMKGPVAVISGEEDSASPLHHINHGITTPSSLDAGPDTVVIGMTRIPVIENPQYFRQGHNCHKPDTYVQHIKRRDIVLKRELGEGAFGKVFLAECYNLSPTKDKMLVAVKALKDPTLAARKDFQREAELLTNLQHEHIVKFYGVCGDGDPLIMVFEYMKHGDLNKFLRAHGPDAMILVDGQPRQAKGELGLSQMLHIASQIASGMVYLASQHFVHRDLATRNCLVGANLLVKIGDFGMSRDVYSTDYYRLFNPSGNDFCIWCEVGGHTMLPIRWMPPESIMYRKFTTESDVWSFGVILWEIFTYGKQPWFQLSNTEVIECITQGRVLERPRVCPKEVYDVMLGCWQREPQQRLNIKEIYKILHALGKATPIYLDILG
NGF (R&D 256GF) (ligand), sequence (P01138 122-241): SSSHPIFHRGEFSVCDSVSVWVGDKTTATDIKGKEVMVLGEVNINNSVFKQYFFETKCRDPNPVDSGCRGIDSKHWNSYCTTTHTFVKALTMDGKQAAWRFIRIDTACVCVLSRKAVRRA

Substance | EC50, SHC1 recruitment assay [1] | Fold-increase, SHC1 recruitment assay [2] | Fold-increase, SHC1 recruitment assay [1] | Fold-increase, SHC1 recruitment assay [3]
NGF (R&D 256GF) (ligand) | 1.59 nM |  |  | 
hIgG control antibody |  | 1 fold | 1.1 fold | 1.1 fold
